This note sets out measurements from publication PMC8469728, “Molecular and Enzymatic Characterization of Flavonoid 3′-Hydroxylase of Malus × domestica” (Plants, 2021).

One series deals with T1, CsCH3H (Cosmos sulphureus, UniProt D8KZE8).
T1 construct: recombinant, expressed in Saccharomyces cerevisiae INVSc1, microsomal preparation
T1 sequence (D8KZE8 1-512): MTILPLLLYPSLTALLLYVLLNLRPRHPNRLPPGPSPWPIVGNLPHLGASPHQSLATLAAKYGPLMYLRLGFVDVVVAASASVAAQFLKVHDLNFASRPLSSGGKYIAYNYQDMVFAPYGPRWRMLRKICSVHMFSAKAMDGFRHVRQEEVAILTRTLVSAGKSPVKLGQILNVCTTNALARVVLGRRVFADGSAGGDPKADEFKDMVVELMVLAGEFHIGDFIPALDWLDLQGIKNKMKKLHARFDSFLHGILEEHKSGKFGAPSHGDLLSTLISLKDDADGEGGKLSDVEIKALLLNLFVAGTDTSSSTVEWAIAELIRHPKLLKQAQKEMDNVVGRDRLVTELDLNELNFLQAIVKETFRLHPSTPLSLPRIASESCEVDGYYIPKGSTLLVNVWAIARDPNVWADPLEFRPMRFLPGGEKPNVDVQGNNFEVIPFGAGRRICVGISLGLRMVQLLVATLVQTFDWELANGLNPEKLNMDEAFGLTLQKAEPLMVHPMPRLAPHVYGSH
Put plainly: LC-MS/DAD detection of 3-hydroxyphloretin formed by yeast microsomes. The settings on record: 10 µM substrate, 1.55 mM NADPH, 100 mM HEPES pH 7.5, 30 °C. It is filed as biochemical.

Substrate in series [1]: O=C1C[C@@H](c2ccc(O)cc2)Oc2cc(O)cc(O)c21
Put plainly: cells, lysate or membranes. It is filed as biochemical, Malus domestica. The settings on record: 0.5 mM NADPH, Tris/HCl pH 6.5–6.75, 25 °C, labelled compound, pH 6.0.

Substrate in series [2]: O=c1c(O)c(-c2ccc(O)cc2)oc2cc(O)cc(O)c12
Put plainly: cells, lysate or membranes. It is filed as biochemical, Malus domestica. The settings on record: 0.5 mM NADPH, Tris/HCl pH 6.5–6.75, 25 °C, labelled compound, pH 6.0.

Substrate in series [3]: O=C1c2c(O)cc(O)cc2O[C@H](c2ccc(O)cc2)[C@H]1O
Put plainly: cells, lysate or membranes. It is filed as biochemical, Malus domestica. The settings on record: 0.5 mM NADPH, Tris/HCl pH 6.5–6.75, 25 °C, labelled compound, pH 6.0.

On to `O=C(CCc1ccc(O)cc1)c1c(O)cc(O)cc1O` [phloretin], for which the “LC-MS/DAD detection of 3-hydroxyphloretin formed by yeast microsomes” value at CsCH3H is recorded as “produced sufficient amounts of 3-hydroxyphloretin to be detected by the DAD”.

B1: MdF3′HI (Malus domestica; I211M) (protein)
chain: MFVLIVFTVVFAFFLYRIFAPGGSRHSLPLPPGPKPWPVVGNLPHLGPVPHHSLAALARQYGPLMHLRLGFVDVVVAASASVASQFLKTHDANFSSRPPNSGAKHLAYNYQDLVFAPYGPRWRLLRKISSVHLFSGKALDDLKHVRQEEVGVLAHGLASAGSKPVNLAQLLNVCTVNALGRVMVGRRLFGNGMGGEDPKADEFKSMVVEMMVLAGVFNIGDFISSLEWLDLQGVAGKMKKLHKRFDAFLTAIVEEHKRSRGGKHVDMLTTLLSLKEDADGEGAKLTDTEIKALLLNMFTAGTDTSSSTVEWAIAELLRHPKILAQLQQELDQVVGRDRLVTESDLPNLTYLQAVIKETFRLHPSTPLSLPRMATESCEINGFHIPKGATLLVNVWAVSRDPDQWSEPLEFRPERFMSGGEKPNVDIRGNDFEVIPFGAGRRICAGMSLGLRMVSLMTATLVHGFDWTLADGLTPEKLNMDEAYGLTLQRAAPLMVHPRNRLAPHAYNASSS
notes: full-length ORF, 511 residues, C-terminal Twin-Strep-tag, expressed in Saccharomyces cerevisiae INVSc1, microsomal preparation; clone MH468788 has I211 and S224, differing from FJ919631 at both residues (M211 and P224 there)
As to B1, the Michaelis constant (Km) in series [1] amounted to 2.11 ± 1.5 µM; in series [2] it was 0.21 ± 0.07 µM; in series [3] it was 0.42 ± 0.06 µM. Besides, the Vmax in series [1] turned out to be 43.8 µM/min; in series [2], 21 µM/min; in series [3], 28.2 µM/min.

B2: MdF3′HII (Malus domestica) (protein)
chain: MFVLIFFTVVLAFFLYRLFAPGGSRHALPLPPGPKPWPVVGNLPHLGPVPHHSLAALARQYGPLMHLRLGFADVVVAASASVASQFLKTHDANFSSRPPNSGAKHLAYNYQDLVFAPYGPRWRMLRKISSVHLFSGKALDDLKHVRQEEVGVLAHGLASAGSKPVSLGQLLNVCTVNALGRVMVGRRLFGDGGGREDQKADEFKSMVVEMMVLAGVFNIGDFIPALEWLDLQGVAGKMKKLHKRFDAFLTAIVEDHKRSGEGKHVDMLTTLLSLTDDADGEGAKLTDTEIKALLLNMFTAGTDTSSSTVEWAIAELLRHPKILAQLQQELDQVVGRDRLVTESDLPNLTYLQAVIKETFRLHPSTPLSLPRMASESCEINGFHIPKGATLLVNVWAISRDPAQWSEPLEFRPERFLPGGEKPNVDVKGNDFEVIPFGAGRRICAGMTLGLRMVSLMTATLVHGFDWTLADGLTPEKLNMDEAYGLTLQRAAPLMVHPRNRLAPHAYNASSP
notes: full-length ORF, 511 residues, C-terminal Twin-Strep-tag, expressed in Saccharomyces cerevisiae INVSc1, microsomal preparation; differs from FJ919633 at residues 73 and 457
For B2, the Michaelis-Menten constant (Km) in series [1] was determined as 0.31 ± 0.10 µM; in series [2] it was 0.20 ± 0.02 µM; in series [3], 0.31 ± 0.03 µM. The Vmax stood at 30 µM/min in series [1], 19.8 µM/min in series [2] and 19.8 µM/min in series [3].

Usually Km stands for the concentration of substrate that gives half-maximal velocity. Broadly, the Vmax is the top rate of the reaction or transport when substrate is in excess.
